Results as given in patent publication US20200385482A1 (Dana-Farber, published 2020).

Assays:
[1] = target: T1, full length PD-L1 in the form of paramagnetic proteoliposomes (PMPL) (human, UniProt Q9NZQ7 19-290); assay: phage display panning on PD-L1 proteoliposomes
T1 construct: whole, on cells; Full length protein in proteoliposomes, not on cells; the form 'whole' is meant; also called proteoliposome-coupled-PD-L1

[2] = target: T2, human PD-L1 (hPD-L1) expressed on transfected 300.19 cells (human, UniProt Q9NZQ7 19-290); assay: FACS, hPD-L1 300.19 cells, assay 2, Ab approx 10 ug/ml
T2 construct: whole, on cells; also called B7H1
Procedure: (§1) Binding analysis of huPD-L1 antibodies were performed using PD-L1-expressing cells. […] GF1538 and GF1757 antibodies were used as controls: GF1538 is a humanized Ab against hPD-L1, and GF1757 is a humanized Ab against hPD-L2. The secondary antibody utilized was PE-goat anti-human IgG. All values represent mean fluorescence intensity (GMFI), as detected by FACs analysis.

[3] = target: T2, human PD-L1 (hPD-L1) expressed on …; assay: competition FACS, hPD-L1 300.19 cells, signal = bound hPD-1-mIgG2a, Ab 0.1 ug/ml
Procedure: (§2) A competitive FACS analysis was performed to characterize the inhibition of hPD1 binding to hPD-L1 by the soluble huPD-L1 antibodies of the present invention. […] In this assay, 50,000 cells expressing hPD-L1 were pre-incubated with the huPD-L1 or control antibodies for 30 minutes at the following concentrations: 10 μg/ml, 1 μg/ml, 0.1 μg/ml and 0.01 μg/ml. […] After 30 minutes of incubation, the cells were washed twice and then analyzed by FACS. MFI values from Table 20 are used to generate a percent inhibition of hPD1 binding with hPD-L1+ cells for FIG. 4.

[4] = target: T2, human PD-L1 (hPD-L1) expressed on …; assay: FACS, hPD-L1 300.19 cells, assay 1, Ab 1 ug/ml
Procedure: as §1

[5] = target: T2, human PD-L1 (hPD-L1) expressed on …; assay: FACS, hPD-L1 300.19 cells, assay 1, Ab 0.01 ug/ml
Procedure: as §1

[6] = target: T2, human PD-L1 (hPD-L1) expressed on …; assay: competition FACS, hPD-L1 300.19 cells, signal = bound hPD-1-mIgG2a, Ab approx 10 ug/ml
Procedure: as §2

[7] = target: T2, human PD-L1 (hPD-L1) expressed on …; assay: FACS, hPD-L1 300.19 cells, assay 1, Ab approx 10 ug/ml
Procedure: as §1

[8] = target: T2, human PD-L1 (hPD-L1) expressed on …; assay: competition FACS, hPD-L1 300.19 cells, signal = bound hPD-1-mIgG2a, Ab 1 ug/ml
Procedure: as §2

[9] = target: T2, human PD-L1 (hPD-L1) expressed on …; assay: FACS, hPD-L1 300.19 cells, assay 1, Ab 0.1 ug/ml
Procedure: as §1

[10] = target: T2, human PD-L1 (hPD-L1) expressed on …; assay: competition FACS, hPD-L1 300.19 cells, signal = bound hPD-1-mIgG2a, Ab 0.01 ug/ml
Procedure: as §2

[11] = target: T2, human PD-L1 (hPD-L1) expressed on …; assay: FACS, hPD-L1 300.19 cells, assay 2, Ab 1 ug/ml
Procedure: as §1

[12] = target: T2, human PD-L1 (hPD-L1) expressed on …; assay: FACS, hPD-L1 300.19 cells, assay 2, Ab 0.01 ug/ml
Procedure: as §1

[13] = target: T2, human PD-L1 (hPD-L1) expressed on …; assay: FACS, hPD-L1 300.19 cells, assay 2, Ab 0.1 ug/ml
Procedure: as §1

T2 sequence (Q9NZQ7 19-290): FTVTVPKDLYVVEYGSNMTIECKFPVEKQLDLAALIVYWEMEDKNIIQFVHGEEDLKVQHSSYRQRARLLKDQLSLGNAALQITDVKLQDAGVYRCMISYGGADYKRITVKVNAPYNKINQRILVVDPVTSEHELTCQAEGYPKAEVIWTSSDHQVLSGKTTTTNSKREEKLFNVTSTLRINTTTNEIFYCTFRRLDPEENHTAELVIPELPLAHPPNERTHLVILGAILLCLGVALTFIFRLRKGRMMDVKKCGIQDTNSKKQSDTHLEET
T1 sequence (Q9NZQ7 19-290): as above

Binder	binding result [1]	Cells PE-A Mean [2]	Cells PE-A Mean (bound hPD-1-mIgG2a) [3]	Cells PE-A Mean [4]	Cells PE-A Mean [5]	Cells PE-A Mean (bound hPD-1-mIgG2a) [6]	Cells PE-A Mean [7]	Cells PE-A Mean (bound hPD-1-mIgG2a) [8]	Cells PE-A Mean [9]	Cells PE-A Mean (bound hPD-1-mIgG2a) [10]	Cells PE-A Mean [11]	Cells PE-A Mean [12]	Cells PE-A Mean [13]
Ab-46 phage-scFv (scFv, V domains shown, not shown: large carriers; small tags and cut ends, also called Ab-46 scFv-phage) VH: EVQLVESGAEVKKPGSSVKVSCKVSGGTFGTYALNWVRQAPGQGLEWMGRIVPLIGLVNYAHNFEGRISITADKSTGTAYMELSNLRSDDTAVYYCAREVYGGNSDYWGQGTLVTVSS VL: NFMLTQPHSVSESPGKTVTISCTRSSGNIGTNYVQWYQQRPGSAPVALIYEDYRRPSGVPDRFSGSIDSSSNSASLIISGLKPEDEADYYCQSYHSSGWEFGGGTKLTVL	binds												
Ab-55 (antibody, V domains shown, also called huPD-L1 Ab # 55) VH: QVQLVQSGAEVKKPGASVKVSCKASGYTFTSYGISWVRQAPGQGLEWMGWTSPHNGLTAFAQILEGRVTMTTDTSTNTAYMELRNLTFDDTAVYFCAKVHPVFSYALDVWGQGTLVTVSS VL: NFMLTQPHSVSESPGKTVTISCTRSSGSIASNYVQWYQQRPGSSPTTVIYEDNQRPSGVPDRFSGSIDTSSNSASLTISGLKTKDEADYYCQSYDGITVIFGGGTKLTVL		42400 MFI	9140 MFI	9650 MFI	543 MFI	150 MFI	24400 MFI	3620 MFI	2300 MFI	12900 MFI	26500 MFI	1760 MFI	8910 MFI
Ab-42 (antibody, V domains shown, also called huPD-L1 Ab # 42; mAb42) VH: QVQLVQSGAEVKKPGSSVKVSCKASGGTFSSYAISWVRQAPGQGLEWMGGIIPIFGTANYAQKFQGRVTITADKSTSTAYMELSSLRSEDTAVYYCARGRQMFGAGIDFWGPGTLVTVSS VL: NFMLTQPHSVSESPGKTVTISCTRSSGSIDSNYVQWYQQRPGSAPTTVIYEDNQRPSGVPDRFSGSIDSSSNSASLTISGLKTEDEADYYCQSYDSNNRHVIFGGGTKLTVL		76800 MFI	3140 MFI	40900 MFI	2080 MFI	139 MFI	53600 MFI	142 MFI	14900 MFI	11800 MFI	72100 MFI	11600 MFI	49400 MFI
Ab-31 (antibody, V domains shown, also called huPD-L1 Ab # 31) VH: QVQLVQSGAEVKKPGATVKVSCKVFGDTFRGLYIHWVRQAPGQGLEWMGGIIPIFGTANYAQKFQGRVTITTDESTSTAYMELSSLRSEDTAVYYCASGLRWGIWGWFDPWGQGTLVTVSS VL: EIVLTQSPATLSLSPGERATLSCRASQSIGNSLAWYQQKPGQAPRLLMYGASSRATGIPDRFSGSGAGTDFTLTISSLEPEDFATYYCQQHTIPTFSFGPGTKVEVK		76400 MFI	7930 MFI	44200 MFI	2830 MFI	157 MFI	53800 MFI	623 MFI	12500 MFI	11900 MFI	71000 MFI	6830 MFI	37700 MFI
Ab-50 (antibody, V domains shown, also called huPD-L1 Ab # 50) VH: QVQLVQSGGEVKKPGASVKVSCKASGYTLSSHGITWVRQAPGQGLEWMGWISAHNGHASNAQKVEDRVTMTTDTSTNTAYMELRSLTADDTAVYYCARVHAALYYGMDVWGQGTLVTVSS VL: QSVLTQPPSVSVAPGQTARITCGGNNIGSKGVHWYQQKPGQAPVLVVYDDSDRPSGIPERFSGSNSGNTATLTISRVEAGDEADYYCQVWDSSSDHWVFGGGTKLTVL		69600 MFI	2800 MFI	42100 MFI	2690 MFI	207 MFI	49400 MFI	156 MFI	15100 MFI	12500 MFI	63400 MFI	5200 MFI	28700 MFI
Ab-52 (antibody, V domains shown, also called huPD-L1 Ab # 52) VH: QVQLQESGGGVVQPGRSLRLSCSASGFTFSRHGMHWVRQAPGKGLEWVAVISHDGSVKYYADSMKGRFSISRDNSNNTLYLQMDSLRADDTAVYYCARGLSYQVSGWFDPWGQGTLVTVSS VL: NFMLTQPHSVSESPGKTVTISCTRSSGSIASNYVQWYQQRPGSAPTTVIYEDNQRPSGVPDRFSGSIDSSSNSASLTISGLKTEDEADYYCQSYDSTTPSVFGGGTKLTVL		37200 MFI	6750 MFI	21400 MFI	1070 MFI	380 MFI	28400 MFI	2070 MFI	5610 MFI	11900 MFI	34900 MFI	2690 MFI	14700 MFI
Ab-14 (antibody, V domains shown, also called huPD-L1 Ab # 14) VH: QVQLVQSGAEVKKPGASVKVSCKASGYTFTSYGISWVRQAPGQGLEWMGWISAYNGNTNYAQKLQGRVTMTTDTSTSTAYMELRSLRSDDTAVYYCARALPSGTILVGGWFDPWGQGTLVTVSS VL: NFMLTQPHSVSESPGKTVTISCTRSSGNIASNYVQWYQQRPGSAPTTVIYEDNQRPSGVPDRFSGSIDSSSNSASLTISGLKTEDEADYYCQSYDSSNLWVFGGGTKLTVL		77900 MFI	14900 MFI	23300 MFI	1650 MFI	696 MFI	41500 MFI	12000 MFI	8100 MFI	15800 MFI	53200 MFI	3700 MFI	17700 MFI
Ab-56 phage-scFv (scFv, V domains shown, not shown: large carriers; small tags and cut ends, also called Ab-56 scFv-phage) VH: EVQLVESGAEVMNPGSSVRVSCRGSGGDFSTYAFSWVRQAPGQGLEWMGRIIPILGIANYAQKFQGRVTITADKSTSTAYMELSSLRSDDTAVYYCARDGYGSDPVLWGQGTLVTVSS VL: NFMLTQPHSVSGSPGKTVTLPCTRSSGSIASHYVQWYQQRPGSAPTTVIYEDNKRPSGVPDRFSGSIDSSSNSASLSISGLKTEDEADYYCQSYDSSNRWVFGGGTKLTVL	binds												
Ab-30 (antibody, V domains shown, also called huPD-L1 Ab # 30) VH: QVQLVQSGGSVVRPGESLRLSCVASGFIFDNYDMSWVRQVPGKGLEWVSRVNWNGGSTTYADAVKGRFTISRDNTKNSLYLQMNNLRAEDTAVYYCVREFVGAYDLWGQGTTVTVSS VL: QSALTQPASVSGSPGQSITISCTGTSSDVGGYNYVSWYQQHPGKAPKLMIYDVSNRPSGVSNRFSGSKSGNTASLTISGLQAEDEADYYCSSYTSSTLPFGGGTKLTVL		67300 MFI	4780 MFI	37500 MFI	3510 MFI	244 MFI	47600 MFI	661 MFI	17500 MFI	11600 MFI	61200 MFI	7720 MFI	39100 MFI
